This is an account of results in patent US20140086936.

For this data set, the target named is hemagglutinin (HA0) of influenza A/Puerto Rico/8/34 (PR8) virus, P03452.

B1: Recombinant purified human matriptase (amino acids 596-855) (protein)
chain: GSDEKDCDCGLRSFTRQARVVGGTDADEGEWPWQVSLHALGQGHICGASLISPNWLVSAAHCYIDDRGFRYSDPTQWTAFLGLHDQSQRSAPGVQERRLKRIISHPFFNDFTFDYDIALLELEKPAEYSSMVRPICLPDASHVFPAGKAIWVTGWGHTQYGGTGALILQKGEIRVINQTTCENLLPQQITPRMMCVGFLSGGVDSCQGDSGGPLSSVEADGRIFQAGVVSWGDGCAQRNKPGVYTRLPLFRDWIKENTGV
Regarding B1, the “cleavage of HA0 to HA1, Western blot” value is “matriptase was able to cleave viral HA”.
